# Data as given in the nanobody polyreactivity screen of Harvey et al. (2022).
# Experiment: yeast display, Sf9 membrane polyspecificity reagent, FACS + sequencing; frameworks hold sequencing errors
# Summary of the method: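 Synthetic nanobody libraries on Saccharomyces cerevisiae BJ5465 were galactose-induced for 36–48 hours, stained 1 hour at 4 °C with 10% biotinylated, detergent-solubilized Sf9 membrane reagent and enriched on streptavidin microbeads. FACS then separated cells into low and high (top ~1%) gates by anti-HA (expression) and streptavidin (reagent binding) fluorescence. Genes were colony-PCR amplified, MiSeq 2 × 250 sequenced and CDR-length filtered. A clone's polyreactivity label is that of its gate of origin.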
row,Sequence,polyreactivity (PSR sort gate)
1,QVQLVESGGGLVQAGGSLRLSCAASGFIFTGYAMGWYRQAPGKERELVAAISWTGDSTYYADSVKGRFTISRDNAKNTVYLQMNSLKPEDTAVYYCAARSYRKPSSRRFDYWGQGTQVTVSS,low polyreactivity
2,QVQLVESGGGLVQAGGSLRLSCAASGFIFTGYAMGWYRQAPGKERELVASISSGGSTYYADSVKGRFTISRDNAKNTVYLLMNSLKPEDTAVYYCNASVSLGRYPGNEYDYEYWGQGTQVTVSS,low polyreactivity
3,QVQLVESGGGLVQAGGSLRLSCAASGFIFTIYVMGWYRQAPGKERELVAAISKSVGRTYYADSVKGRFTISRDNAKNTVYLQMNSLKPEDTAVYYCAAVYVKYYGGSYDYWGQGTQVTVSS,high polyreactivity
4,QVQLVESGGGLVQAGGSLRLSCAASGFIFTLNAMGWYRQAPGKERELVASISSGVSTNYADSVKGRFTISRDNAKNTVYLQMNSLKPEDTAVYYCAARDTGPDGFEGDYWGQGTQVTVSS,low polyreactivity
5,QVQLVESGGGLVQAGGSLRLSCAASGFIFTLYTMGWYRQAPGKERELVAAIDKNGSTYYADSVKGRFTISRDNAKNTVYLQMNSLKPEDTAVYYCAADDRYRGNREDYWGQGTQVNVSS,low polyreactivity
6,QVQLVESGGGLVQAGGSLRLSCAASGFIFTPYAMGWYRQAPGKERELVAAIRNTGSTYYADSVKGRFTISRDNAKNTVYLQMNSLKPEDTAVYYCNARRYRWAVVKGGYWGQGTQVTVSS,high polyreactivity
7,QVQLVESGGGLVQAGGSLRLSCAASGFIFTPYTMGWYSQAPGKERELVAAITDGSSTYYADSVKGRFTISRDNAKNTVYLQMNSLKPEDTALYYCNADGKPPYNSWLYDYWGQGTQVTVTS,low polyreactivity
8,QVQLVESGGGLVQAGGSLRLSCAASGFIFTQYAMGWYRQAPGKERELVAAISTSGGRTFYADSVKGRFTISRDNAKNTVYLQMNSLKPEDTAVYYCGARPGYLYDYWGQGTQVTVSS,high polyreactivity
9,QVQLVESGGGLVQAGGSLRLSCAASGFIFTRNAMGLYRQAPGTERELVAVISYGGGSTYYADSVKGRFTISRDNAKNTVYLQMNSLKPEDTAVYYCAADQNWRYYYHYTYYYWGQGTQVTVSS,high polyreactivity
10,QVQLVESGGGLVQAGGSLRLSCAASGFIFTRYAMGWYRQAPGKERELVAVITSSGGTYYADSVKGRFTISRDNAKNTVYLQMNSLKPEDTAVYYCNAVLGYYTYDYWGQGTQVTVSS,high polyreactivity
11,QVQLVESGGGLVQAGGSLRLSCAASGFIFTVNAMGWYRQAPGKDRELVAAITSGGNTYYADSVKGRFTISRDNAKNTVYLQMNSLKPEDTAVYYCNAVFYTWSPYGTTVRSYGYWGQGTQVTVSS,high polyreactivity
12,QVQLVESGGGLVQAGGSLRLSCAASGFIFTYYAMGWYRQAPGKERELVAAITVRGGSTYYADSVKGRFTISRDNAKNTVYLQMNSLKPEDTGVYYCNTVHGLWRRYNYWGQGTQVTVSS,high polyreactivity
13,QVQLVESGGGLVQAGGSLRLSCAASGFIFTYYDMGWYRQAPGKERELVASISWDGGRTYYADSVKGRFTISRDNAKNTVYLQMNSLKPEDTAVYYCNADGSSYWYPVPLDGGDYWGQGTQVTVSS,low polyreactivity
14,QVQLVESGGGLVQAGGSLRLSCAASGFIFVANAMGWYRQAPGKEREFFAAISSSGGRTYYADSVKGRFTISRDNAKNTVYLQMNSLKPEDTAVYYCAKDRVFSRRGFGYWGQGTQVTVSS,low polyreactivity
15,QVQLVESGGGLVQAGGSLRLSCAASGFIFVDYDMGWYSQAPGKERELVAAINWSGGSTDYADSVKGRFTISRDNAKNTVYLQMNSLKPEDTAVYYCAAEGQDGRFYWGQGTQVTVSS,low polyreactivity
16,QVQLVESGGGLVQAGGSLRLSCAASGFIFVHNAMGWYRQAPGKERELVATISRRGGSTYYADSVKGRFTISRDNAKNTVYLQMNILKPEDTAVYYCAARTYGYYLYDYWGQGTQVTVSS,high polyreactivity
17,QVQLVESGGGLVQAGGSLRLSCAASGFIFVIYAKGWYRQAPGKERELVARISFRSGRTYYADSVKGRFTISRDNAKNTVYLQMNSLKPEDTAVYYCNAVLYGQYKYDYWGQGTQVTVSS,high polyreactivity
18,QVQLVESGGGLVQAGGSLRLSCAASGFIFVIYAMGWYRQAPGKERELVARISFRSGRTYYADSVKGRFTISRDNAKNTVYLQMNSLKPEDTAVYYCNAVLYGQYKYDYWGQGTQVTVSS,high polyreactivity
19,QVQLVESGGGLVQAGGSLRLSCAASGFIFVKYAMGWYRQAPGKERELVAAISWSGGTTYYADSVKGRFTISRDNANNTVYLQMNSLKPEDTAVYYCAAEYYTGYFKYDYWGQGTQVTVSS,high polyreactivity
20,QVQLVESGGGLVQAGGSLRLSCAASGFIFVPYAMGWYRQAPGKERELVAAIDTSGGNTYADSVKGRFTISRDNAKNTVYLQMNSLKPEDTAVYYCAARYQWDWRDYYYWGQGTQVTVSS,low polyreactivity
21,QVQLVESGGGLVQAGGSLRLSCAASGFIFVPYAMGWYRQAPGKERELVATITWRGDSTYYADSVKGRFTISRDNAKNTVYLQMNSLKPEDTAVYYCAAVGPIRGYSSDEYWGQGTQVTVSS,low polyreactivity

row,Sequence,polyreactivity (PSR sort gate)
1,QVQLVESGGGLVQAGGSLRLSCAASGFIFVRNAMGWYRQAPGKERELVAAITGRGGRTYYADSVKGRFTISRDNAKNTVYLQMNSLKPEDTAVYYCAKDSPDDHFGYWGQGTQVTVSS,high polyreactivity
2,QVQLVESGGGLVQAGGSLRLSCAASGFIFVRYAMGWYRLAPGKEREFVAAISGGAGSSYYADSVKGRFTISRDNAKNTVYLQMNSLKPEDTAVYYCNRVRSLRYGYWGQGTQVTVSS,high polyreactivity
3,QVQLVESGGGLVQAGGSLRLSCAASGFIFVSNAMGWYRQAPGKERELVATITNGDRTYYADSVKGRFPISRDNAKNTVYLQMNSLKPEDTAVYYCNADFRAREVFLFDSWGQGTQVTVSS,low polyreactivity
4,QVQLVESGGGLVQAGGSLRLSCAASGFIFVSYSLGWYRQAPGKERELVAAIDRIGGITYYADSVKGRFTISRDNSKNTVYLQMNSLKPEDTAVYYCAAAASYATVRVGREYYWGQGTHVTVSS,low polyreactivity
5,QVQLVESGGGLVQAGGSLRLSCAASGFIFVTYAMGWYRQAPGKERELVAAITNSGGTTYYADSVKGRFTISRDNAKNTVYLQMNSLKPEDTAVYYCNKPYGAETAHREFDYWGQGTHVTVSS,low polyreactivity
6,QVQLVESGGGLVQAGGSLRLSCAASGFIFVTYAMGWYRQAPGKERELVAAITNSGGTTYYADSVKGRFTISRDNAKNTVYLQMNSLKPEDTAVYYCNKPYGAETAHREFDYWGQGTQLTVSS,low polyreactivity
7,QVQLVESGGGLVQAGGSLRLSCAASGFIFVVYAMGWYRQAPGQERELVAAITYSGGSTYYADSVKGRFTISRDNAKNTVYLQMNSLKPEDTAVYYCAAPEHDREFDYWGQGTQVTVSS,low polyreactivity
8,QVQLVESGGGLVQAGGSLRLSCAASGFIFVVYDMGWYRQAPGKERELVAGIDTSGADTYYADSVKGRFTISRDNAKNTVYLQMNRLKPEDPAVYYCAAETITDDYYEYDYWGQGTQVTVSS,low polyreactivity
9,QVQLVESGGGLVQAGGSLRLSCAASGFIFVYNDMGWYRQAPGKERELVASISNGDNTNYADSVKGRFTISRDNAKNTVYLQMNSLKPEDTAVYYCAARGTIYVLGVPARPVPDGDYWGQGTQVTVSS,low polyreactivity
10,QVQLVESGGGLVQAGGSLRLSCAASGFIFVYYAMGWYRQAPGKERELVAAISKRGGNTYYADSVKGRFTISRDNAKNTVYLQMNSLKPEDTAVYYCAADGPGHYYAELEYDYWGQGTQVTVSS,high polyreactivity
11,QVQLVESGGGLVQAGGSLRLSCAASGFIFVYYAMGWYRQAPGKERELVAAITSDVNTYYADSVKGRFTISRDNAKNTVYLQMNSLKPEDTAVYYCNADADDYRDYQDYDYWGQGTQVTVSS,low polyreactivity
12,QVQLVESGGGLVQAGGSLRLSCAASGFIFVYYARGWYRQAPGKEMELVAAISRGGSTYYADSVKGRFTISRDNAKNTVYLQMNSLKPEDTAFYYCNKVLPYGREYGYWGQGTQVTVSS,high polyreactivity
13,QVQLVESGGGLVQAGGSLRLSCAASGFIFWEYAMGWYRQAPGKERELVAAISTSGGSTYYADSVKGRFTISRDNAKNTVYLQMISLKPEDTAVYYCAVDGWDDTYFRQDMDYWGQGTQVTVSS,low polyreactivity
14,QVQLVESGGGLVQAGGSLRLSCAASGFIFWFNDMGWYRQAPGKERELVATISWSDTSTYYADSVKGRFTISRDNAKNTVYLQMTSLKPEDTAVYYCATDGRETCLPEYYWGQGTQVTVSS,low polyreactivity
15,QVQLVESGGGLVQAGGSLRLSCAASGFIFWFYAMGWYRQAPGKEREFVATISRGGSKNYADSVKGRFTISRDNAKNTVYFKINSLKAEDTEVYYCAAARSSYWKTIRAFTMDYWGQGTQVTVSS,high polyreactivity
16,QVQLVESGGGLVQAGGSLRLSCAASGFIFWLYAMGWYIQAPGKERELVASINWSGGDTYYADSVKGRFTISRDNAKNTFYLQMNSLKPEDTAVYYCTAKVLDSKSSFDYWGKGTQVTVSS,low polyreactivity
17,QVQLVESGGGLVQAGGSLRLSCAASGFIFWLYAMGWYRQAPGKERELVATITYSDGSTYYADSVKGRFTISRDNAKNTVYLQMNSLKPEDTAVYYCAAEVYYGYDYWGQGTQVTVSS,low polyreactivity
18,QVQLVESGGGLVQAGGSLRLSCAASGFIFWPYAMGWYRQAPGKESELVAAITTGGSTNYADSVKGRFTISRDNAKNTVYLQMNSLKPEDTAVYYCAKGYYFGYYEFDYWGQGTQVTVSS,high polyreactivity
19,QVQLVESGGGLVQAGGSLRLSCAASGFIFWPYVMGWYRQEPGTDRELVAAISLGDGSTYYADSVKGRFRLSRDHAKNTVYLQMNSLKPEDTAVYYCAADVTVAWYPVYPGFYYWGQGTQVTVSS,low polyreactivity
20,QVQLVESGGGLVQAGGSLRLSCAASGFIFWSYAMGWYRQAPGKERELVAAIDLTGGSTYYADSVKGRFTISRDNAKNTVYLQMNSLKPEDTAVYYCNADGDSYAFTNSDSGFDYWGQGTQVTVSS,low polyreactivity
